One substance from US20080286310A1 can be followed below.

This experiment concerns the target Translocated intimin receptor Tir of EHEC O157:H7 (enterohemorrhagic Escherichia coli O157:H7) (UniProt Q7DB77). As to the kind of experiment: cell-based or functional assay.
Chain of UniProt Q7DB77 (Q7DB77 whole entry): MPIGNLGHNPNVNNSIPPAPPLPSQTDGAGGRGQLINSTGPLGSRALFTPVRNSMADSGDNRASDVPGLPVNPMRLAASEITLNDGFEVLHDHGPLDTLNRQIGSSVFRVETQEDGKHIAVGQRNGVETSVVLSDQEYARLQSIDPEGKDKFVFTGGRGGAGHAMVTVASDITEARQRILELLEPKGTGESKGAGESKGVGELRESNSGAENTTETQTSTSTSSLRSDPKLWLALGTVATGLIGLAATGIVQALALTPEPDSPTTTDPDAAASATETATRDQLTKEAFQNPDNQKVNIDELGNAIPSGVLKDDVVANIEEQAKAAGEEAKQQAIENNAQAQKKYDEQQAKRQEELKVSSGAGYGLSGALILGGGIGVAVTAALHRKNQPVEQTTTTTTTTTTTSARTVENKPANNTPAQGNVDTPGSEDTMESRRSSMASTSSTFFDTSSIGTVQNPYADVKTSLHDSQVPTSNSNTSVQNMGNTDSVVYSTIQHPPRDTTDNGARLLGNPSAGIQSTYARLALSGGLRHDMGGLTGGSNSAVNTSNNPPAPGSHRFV

In the case of “Native intimin of EHEC O157:H7 strain 86-24 (from UniProt P43261 40-934)”, the microcolonies on HeLa cells (percent of cells) came to 47%.
